Entries after “also recorded” stand apart in the source; their conditions may differ.
T1: ETP (Mus musculus, UniProt E9PWQ3)
T1 sequence (E9PWQ3 with tags, fused parts or gaps limits assumed): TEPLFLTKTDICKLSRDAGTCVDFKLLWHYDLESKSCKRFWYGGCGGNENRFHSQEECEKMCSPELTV

B1: 10B6: rat anti-mouse endotrophin monoclonal antibody; light chain variable SEQ ID NO: 2, heavy chain variable SEQ ID NO: 4 (antibody, V domains shown)
VH: QVQLQQSGPELAKPGSSVKISCKASGYTFTSYEMHWIKQRPGQGLEWIGYIYPESGSTGYNEKFKGKATLTVDKSSPTAYMQLSSLTPDNSAVYFCTRGLRVLGYVMDVWGHGTSVTVSS
VL: DVQLTQSPSFLSASVGDRVTINCKASQNINKYLNWYQQKLGEAPKRLIYNTNNLQTGIPSRFSGSASGTDYTLTISSLHPEDFATYFCLQHSSLYTFGAGTKLELK

What was measured:
PyMT mice [1] = test: high dosage cisplatin in PyMT mice; type: in vivo, mouse; settings: cisplatin 2.5 mg/kg, ip. twice a week
Experimental: (§1) FIGS. 20A-20C. Endotrophin overexpression confers cisplatin resistance in PyMT mice. FIG. 20A. 10-weeks-aged PyMT and PyMT/endotrophin (PyMT/ETP) mice were given high dosage of cisplatin (2.5 mg/kg, ip., 2 times/week). Tumor growth was determined by caliper measurements. Data represent mean±SD (n=7-10/group). ***p<0.001, PyMT/CIS vs. PyMT/ETP/CIS by 2-way ANOVA. FIGS. 20B-20C. A piece of tumors taken from PyMT (Ctrl-tumor) and PyMT/endotrophin (ETP^+-tumor) mice were implanted into isogenic wild-type hosts. Cisplatin (1 mg/kg, ip., 2 times/week) were injected at 3-weeks post implantation for tumor progression. Tumor volume was determined by caliper measurement. […] Data represent mean±SD (n=7-8/group). *p<0.05 vs. Ctrl-tumors by 2-way ANOVA. Representative images were taken at 70-days post implantation. Scale: 10 mm.

PyMT/endotrophin mice = test: high dosage cisplatin in PyMT/endotrophin mice; type: in vivo, mouse; settings: cisplatin 2.5 mg/kg, ip. twice a week
Experimental: as §1

endotrophin+-tumors = test: allografts of tumor pieces (Ctrl-tumor, ETP+-tumor) in wild-type hosts, cisplatin; type: in vivo, mouse; settings: cisplatin 1 mg/kg, ip. twice a week
Experimental: as §1

ETP = target: T1, ETP; test: in vivo Matrigel bioassay (stromal cell recruitment into plugs); settings: ETP 100 ng/plug, antibody 20 μg/plug, 2 days after implantation
Experimental: FIGS. 7A-7I: ETP acts as a chemokine augmenting tumor growth. […] Tumor volume was determined 1 month after implantation (representative images). Data represent mean±SEM (n=5 per group). ***P<0.001, unpaired t test. (FIG. 7B) In vivo Matrigel bioassay. Matrigel (50 μl) was mixed with ETP (100 ng/plug) or PBS and implanted into WT mice in the presence of IgG, 1D11, or 10B6 (20 μg/plug). 2 days after implantation, plugs were excised and stained for FIG. 7H & FIG. 7E. Scale bars: 100 μm. (FIGS. 7C-7H) Cancer cells were plated in the bottom chamber 1 day prior to seeding MS-1 cells (5×10^5 cells/well) and macrophages (1×10^5 cells/well) atop the membrane chamber in Transwell and incubated for 18-24 hours (FIG. 7C). (FIGS. 7D, 7E, 7F, 7G) Representative images of multiple independent experiments. Scale bars: 100 μm. (FIG. 7H) Quantitation (mean±SEM; n=3 per group). ***P<0.001, […], unpaired t test. (FIG. 7I) MS-1 migration assay. MS-1 cells (5×10^5 cells/well) were plated atop the chamber in Transwell and incubated for 24 hours. Chemotaxis was set up by following cell migration from DMEM/serum-free to DMEM/2% FBS/PBS or DMEM/2% FBS/ETP protein (1 μg/well). Images are representative of multiple independent experiments. Data represent mean±SEM (n=3 per group). ***P=0.008, unpaired t test. Scale bars: 100 μm.

PyMT mice [2] = test: 10B6 treatment of PyMT mice, tumor growth; type: in vivo; settings: 10B6 200 μg/mouse i.p. twice weekly, 9 to 13 weeks of age, vs isotype control IgG
Experimental: FIGS. 8A-8I: 10B6 blocks ETP-mediated stromal expansion in vivo. (FIG. 8A) 10B6 (200 μg/mouse) was i.p. injected twice weekly into PyMT mice from 9 to 13 weeks of age. Tumor growth (mean±SEM; n=4-6 per group) was determined by weekly caliper measurements. *P<0.05, **P<0.01, ***P<0.001 vs. IgG control, 2-way ANOVA. (FIG. 8B) Primary mammary epithelial cancer cells were isolated from 12-week-old FP635/PyMT and FP635/PyMT/ETP mice and implanted into WT recipients with the same volume of Matrigel. For the 10B6 group, 10B6 was added in a Matrigel plug (10 μg/plug) admixed with ETP^+-cancer cells (i.e., ETP^+/10B6). A representative whole-body image was acquired 25 days after implantation using IVIS fluorescence scanner. Artificial color indicates fluorescence signal intensity accounts for tumor volume (AU). Quantitative results are represented as mean±SEM (n=3 per group). *P<0.05, unpaired t test. […] Quantified results in FIGS. 8D-8I are mean±SEM (multiple images, n=3 per group). *P<0.05, **P<0.01, unpaired t test. […]
Tumor onset was monitored twice weekly by palpation. Tumor sizes were measured with a digital caliper twice weekly and the volumes were calculated as […]. […] Metastatic tumor growth was determined by histological analysis with H&E stained lung tissues.

ETP+-cancer cells = test: allograft of FP635/ETP+-cancer cells in Matrigel plug with or without 10B6; type: in vivo, mouse
Experimental: FIGS. 8A-8I: 10B6 blocks ETP-mediated stromal expansion in vivo. (FIG. 8A) 10B6 (200 μg/mouse) was i.p. injected twice weekly into PyMT mice from 9 to 13 weeks of age. Tumor growth (mean±SEM; n=4-6 per group) was determined by weekly caliper measurements. *P<0.05, **P<0.01, ***P<0.001 vs. IgG control, 2-way ANOVA. (FIG. 8B) Primary mammary epithelial cancer cells were isolated from 12-week-old FP635/PyMT and FP635/PyMT/ETP mice and implanted into WT recipients with the same volume of Matrigel. For the 10B6 group, 10B6 was added in a Matrigel plug (10 μg/plug) admixed with ETP^+-cancer cells (i.e., ETP^+/10B6). A representative whole-body image was acquired 25 days after implantation using IVIS fluorescence scanner. Artificial color indicates fluorescence signal intensity accounts for tumor volume (AU). Quantitative results are represented as mean±SEM (n=3 per group). *P<0.05, unpaired t test. (FIGS. 8C-8I) 6 weeks after implantation, tumor tissues were excised from Ctrl-, ETP^+-, and ETP^+/10B6-cancer cells allografted mice and stained for H&E (FIG. 8C), Masson's Trichrome C (FIG. 8D), α-SMA (FIG. 8E), FSP-1 (FIG. 8F), CD31 (FIG. 8G), F4/80 (FIG. 8H), and Ki67 (FIG. 8I). Quantified results in FIGS. 8D-8I are mean±SEM (multiple images, n=3 per group). *P<0.05, **P<0.01, unpaired t test. Scale bars: 50 μm. (FIG. 8J) Working model for ETP in mammary tumor progression.
Isolation of mammary epithelial cancer cells and implantation procedures were as previously described. Tumor growth was monitored once weekly beginning 2 weeks after implantation.

[3] = tested on: diet induced obese (DIO) mice; test: diet induced obese mice, serum and hepatic lipid parameters; type: in vivo, mouse
Experimental: FIGS. 26A-26G: Endotrophin neutralization improves the metabolic phenotype. FIG. 26A. Two cohorts of mice (n=8) were exposed to high fat diet for 45 days after weaning. At the indicated time points (arrowheads), mice were treated with anti-endotrophin monoclonal antibodies (100 µg/mouse) or equivalent amounts of non-immune antibody. Body weights were monitored. FIG. 26B. Plasma Triglycerides and FIG. 26C. plasma free fatty acids (NEFAs) and FIG. 26D. plasma cholesterol were measured. FIG. 26E. Hepatic triglycerides and FIG. 26F. hepatic cholesterol were measured. Significant differences as indicated by unpaired student t-test. FIG. 26G. […] Scale bar=25 μm.
To evaluate the therapeutic potential of endotrophin neutralizing monoclonal antibodies on lipid parameters, a separate cohort of diet induced obese (DIO) mice were chronically treated with either IgG control or 10B6 (rat anti-mouse endotrophin monoclonal antibody) via intraperitoneal injection at 2 weeks after high-fat diet (HFD) challenge and maintained them on a HFD with antibody treatment for another 4 weeks, similar to the experiment described in FIG. 24.

Molecule | primary tumor growth of PyMT mice (PyMT mice [1]) | response of PyMT/endotrophin mice to cisplatin treatment (PyMT/endotrophin mice) | response of endotrophin+-tumors compared to control (Ctrl)-tumors (endotrophin+-tumors) | chemokine activity of ETP (stromal cell recruitment into Matrigel plugs) (ETP) | tumor growth (PyMT mice [2]) | tumor regression (ETP+-cancer cells; 6 weeks after implantation) | ETP+-cancer cell growth (fluorescence imaging) (ETP+-cancer cells; 10B6 10 μg/plug) | ETP-mediated tumor stromal expansion (ETP+-cancer cells; H&E, 6 weeks after implantation) | ETP-mediated increase in fibrosis and stromal expansion (ETP+-cancer cells; Masson's Trichrome C, α-SMA, FSP-1, CD31, F4/80) | hepatic cholesterol levels ([3]; 10B6 vs IgG) | levels of hepatic triglycerides ([3]; 10B6 vs IgG) | levels of serum triglyceride ([3]; 10B6 vs IgG) | serum cholesterol levels ([3]; 10B6 vs IgG) | serum free fatty acids ([3]; 10B6 vs IgG) | hepatic lipid accumulation ([3]; H&E stains, 10B6 vs IgG control)
N.N.[Cl][Pt][Cl] [cisplatin, cis-diammine-dichloro-platinum] | effectively curbed | resistant | more resistant; also recorded: increased cisplatin resistance |  |  |  |  |  |  |  |  |  |  |  | 
B1 |  |  |  | completely blocked | significantly attenuated | triggered tumor regression | effectively attenuated | inhibited | completely blocked | comparable | improved | dramatically improved | less affected | dramatically improved | significantly reduced

Source: patent US10975142B2, “Endotrophin neutralization and use thereof” (THE BOARD OF REGENTS OF THE UNIVERSITY OF TEXAS SYSTEM, priority 2013, dated 2021)
